In the supplement of paper PMC10065799, “High-throughput profiling of sequence recognition by tyrosine kinases and SH2 domains using bacterial peptide display” (eLife, 2023):

Experiments:
c-Src SH2 = experiment: SH2 binding enrichment of the phosphorylated peptide, bacterial display (enrichment ratio); higher = better substrate or ligand; peptides without Tyr show the background
SHP2-C SH2 = experiment: as above
Grb2 SH2 = Grb2 SH2 (UniProt P62993); experiment: as above
Hck = Hck (UniProt P08631); experiment: phosphorylation enrichment, bacterial display (enrichment ratio); higher = better substrate or ligand; peptides without Tyr show the background
FGFR3 = FGFR3 (UniProt P22607); experiment: as above
EPHB2 = EPHB2 (UniProt P29323); experiment: as above
Jak2 = Jak2 (UniProt O60674); experiment: as above
c-Src = experiment: as above
MERTK = MERTK (UniProt Q12866); experiment: as above
c-Abl (mouse) = experiment: as above
Fer (mouse) = experiment: as above
AncSZ = experiment: as above
Fes = Fes (UniProt P07332); experiment: as above
FGFR1 = FGFR1 (UniProt P11362); experiment: as above
EPHB1 = EPHB1 (UniProt P54762); experiment: as above
Fyn = Fyn (UniProt P06241); experiment: as above
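For SH2 binding enrichment of the phosphorylated peptide, bacterial display in this document: peptide library displayed on the E. coli surface as eCPX fusions, selected cells deep-sequenced, score is each peptide's frequency after selection divided by its frequency in the input.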
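For phosphorylation enrichment, bacterial display in this document: 11-residue human phosphosite peptides and single-mutation variants displayed on the E. coli surface, counted by deep sequencing, each peptide's frequency after selection divided by its frequency in the unselected input library; frequency after pTyr selection over input frequency; kinase dosed for 20-30% of maximal phosphorylation in three min.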

Sequence of EPHB2 (P29323 whole entry, looked up): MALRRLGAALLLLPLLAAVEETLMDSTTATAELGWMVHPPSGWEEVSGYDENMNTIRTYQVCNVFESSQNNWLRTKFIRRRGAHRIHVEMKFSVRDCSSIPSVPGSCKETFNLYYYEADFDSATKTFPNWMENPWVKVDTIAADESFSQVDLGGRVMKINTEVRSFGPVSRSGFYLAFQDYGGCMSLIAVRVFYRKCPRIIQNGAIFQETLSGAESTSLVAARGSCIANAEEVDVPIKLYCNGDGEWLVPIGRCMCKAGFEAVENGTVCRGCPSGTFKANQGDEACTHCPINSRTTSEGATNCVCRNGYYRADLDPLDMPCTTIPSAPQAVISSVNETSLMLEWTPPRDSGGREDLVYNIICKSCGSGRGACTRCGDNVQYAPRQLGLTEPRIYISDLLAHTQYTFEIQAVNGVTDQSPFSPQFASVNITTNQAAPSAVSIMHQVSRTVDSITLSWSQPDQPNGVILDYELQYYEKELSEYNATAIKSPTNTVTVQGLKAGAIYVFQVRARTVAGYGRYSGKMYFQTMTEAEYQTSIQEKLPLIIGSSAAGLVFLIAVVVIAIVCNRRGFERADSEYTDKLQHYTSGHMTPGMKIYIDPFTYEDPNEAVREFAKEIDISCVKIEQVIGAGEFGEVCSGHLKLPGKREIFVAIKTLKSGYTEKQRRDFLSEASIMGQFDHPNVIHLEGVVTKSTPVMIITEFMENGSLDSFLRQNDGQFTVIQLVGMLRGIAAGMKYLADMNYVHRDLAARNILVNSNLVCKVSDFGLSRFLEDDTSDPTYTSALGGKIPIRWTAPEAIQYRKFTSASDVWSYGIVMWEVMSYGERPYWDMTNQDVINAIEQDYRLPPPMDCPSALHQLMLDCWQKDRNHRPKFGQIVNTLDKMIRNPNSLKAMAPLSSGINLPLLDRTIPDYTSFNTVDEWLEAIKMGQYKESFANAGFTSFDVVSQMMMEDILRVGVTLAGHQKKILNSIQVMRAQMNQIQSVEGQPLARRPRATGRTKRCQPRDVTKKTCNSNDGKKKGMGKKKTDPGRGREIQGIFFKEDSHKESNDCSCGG
Sequence of FGFR3 (P22607 whole entry, looked up): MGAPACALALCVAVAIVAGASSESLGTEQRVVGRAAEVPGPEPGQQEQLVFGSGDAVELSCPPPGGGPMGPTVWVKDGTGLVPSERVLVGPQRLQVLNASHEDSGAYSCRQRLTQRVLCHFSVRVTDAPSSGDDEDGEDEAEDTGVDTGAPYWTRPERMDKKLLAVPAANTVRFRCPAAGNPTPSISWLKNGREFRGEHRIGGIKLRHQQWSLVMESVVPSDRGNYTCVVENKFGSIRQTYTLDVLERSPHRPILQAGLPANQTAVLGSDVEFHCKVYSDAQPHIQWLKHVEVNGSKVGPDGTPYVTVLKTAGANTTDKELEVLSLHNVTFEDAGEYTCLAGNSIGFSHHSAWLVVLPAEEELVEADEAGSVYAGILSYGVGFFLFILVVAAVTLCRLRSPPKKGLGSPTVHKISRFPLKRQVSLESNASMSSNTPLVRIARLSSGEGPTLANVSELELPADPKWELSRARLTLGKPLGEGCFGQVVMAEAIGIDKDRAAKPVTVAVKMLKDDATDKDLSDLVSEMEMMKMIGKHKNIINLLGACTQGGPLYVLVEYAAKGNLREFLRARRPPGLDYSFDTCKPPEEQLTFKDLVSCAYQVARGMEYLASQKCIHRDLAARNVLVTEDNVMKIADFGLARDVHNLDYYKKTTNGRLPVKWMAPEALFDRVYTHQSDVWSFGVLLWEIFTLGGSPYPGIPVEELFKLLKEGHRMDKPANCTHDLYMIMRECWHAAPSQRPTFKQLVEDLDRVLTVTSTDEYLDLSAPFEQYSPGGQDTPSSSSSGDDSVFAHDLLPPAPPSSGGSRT
Sequence of Jak2 (O60674 whole entry, looked up): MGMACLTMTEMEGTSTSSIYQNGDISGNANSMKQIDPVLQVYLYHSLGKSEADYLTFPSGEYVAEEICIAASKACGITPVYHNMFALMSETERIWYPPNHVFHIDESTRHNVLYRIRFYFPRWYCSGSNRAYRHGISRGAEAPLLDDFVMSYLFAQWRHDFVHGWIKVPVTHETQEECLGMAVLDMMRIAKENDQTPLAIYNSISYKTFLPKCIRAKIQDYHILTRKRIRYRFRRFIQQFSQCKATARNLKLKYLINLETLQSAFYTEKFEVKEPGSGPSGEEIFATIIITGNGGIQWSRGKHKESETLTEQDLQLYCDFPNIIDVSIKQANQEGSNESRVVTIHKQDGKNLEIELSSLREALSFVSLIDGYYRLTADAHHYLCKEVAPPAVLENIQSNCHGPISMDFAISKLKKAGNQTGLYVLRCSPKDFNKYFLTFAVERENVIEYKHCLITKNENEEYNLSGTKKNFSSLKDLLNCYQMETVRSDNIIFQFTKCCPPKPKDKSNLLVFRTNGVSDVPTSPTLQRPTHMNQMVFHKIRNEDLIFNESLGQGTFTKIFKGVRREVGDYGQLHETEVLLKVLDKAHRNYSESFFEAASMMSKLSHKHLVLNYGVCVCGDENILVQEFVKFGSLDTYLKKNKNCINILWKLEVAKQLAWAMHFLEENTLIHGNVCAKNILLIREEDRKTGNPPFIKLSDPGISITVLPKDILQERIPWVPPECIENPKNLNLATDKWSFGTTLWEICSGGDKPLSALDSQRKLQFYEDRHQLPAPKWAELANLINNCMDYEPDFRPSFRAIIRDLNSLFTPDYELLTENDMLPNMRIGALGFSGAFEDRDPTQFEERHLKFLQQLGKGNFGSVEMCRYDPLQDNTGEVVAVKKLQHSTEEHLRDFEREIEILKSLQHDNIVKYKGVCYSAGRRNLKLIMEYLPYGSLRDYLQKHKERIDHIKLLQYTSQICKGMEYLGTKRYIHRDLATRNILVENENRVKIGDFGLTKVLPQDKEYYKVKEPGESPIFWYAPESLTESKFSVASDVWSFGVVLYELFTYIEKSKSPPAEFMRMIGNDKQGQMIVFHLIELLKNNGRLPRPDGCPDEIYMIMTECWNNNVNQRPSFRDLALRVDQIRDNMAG
Sequence of Grb2 SH2 (P62993 whole entry, looked up): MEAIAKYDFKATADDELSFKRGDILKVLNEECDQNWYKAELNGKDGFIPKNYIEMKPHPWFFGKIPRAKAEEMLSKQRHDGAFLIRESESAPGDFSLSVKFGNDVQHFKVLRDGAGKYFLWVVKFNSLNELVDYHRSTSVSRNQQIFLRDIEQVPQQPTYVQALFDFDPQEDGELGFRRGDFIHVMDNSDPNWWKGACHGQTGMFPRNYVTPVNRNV
Sequence of FGFR1 (P11362 whole entry, looked up): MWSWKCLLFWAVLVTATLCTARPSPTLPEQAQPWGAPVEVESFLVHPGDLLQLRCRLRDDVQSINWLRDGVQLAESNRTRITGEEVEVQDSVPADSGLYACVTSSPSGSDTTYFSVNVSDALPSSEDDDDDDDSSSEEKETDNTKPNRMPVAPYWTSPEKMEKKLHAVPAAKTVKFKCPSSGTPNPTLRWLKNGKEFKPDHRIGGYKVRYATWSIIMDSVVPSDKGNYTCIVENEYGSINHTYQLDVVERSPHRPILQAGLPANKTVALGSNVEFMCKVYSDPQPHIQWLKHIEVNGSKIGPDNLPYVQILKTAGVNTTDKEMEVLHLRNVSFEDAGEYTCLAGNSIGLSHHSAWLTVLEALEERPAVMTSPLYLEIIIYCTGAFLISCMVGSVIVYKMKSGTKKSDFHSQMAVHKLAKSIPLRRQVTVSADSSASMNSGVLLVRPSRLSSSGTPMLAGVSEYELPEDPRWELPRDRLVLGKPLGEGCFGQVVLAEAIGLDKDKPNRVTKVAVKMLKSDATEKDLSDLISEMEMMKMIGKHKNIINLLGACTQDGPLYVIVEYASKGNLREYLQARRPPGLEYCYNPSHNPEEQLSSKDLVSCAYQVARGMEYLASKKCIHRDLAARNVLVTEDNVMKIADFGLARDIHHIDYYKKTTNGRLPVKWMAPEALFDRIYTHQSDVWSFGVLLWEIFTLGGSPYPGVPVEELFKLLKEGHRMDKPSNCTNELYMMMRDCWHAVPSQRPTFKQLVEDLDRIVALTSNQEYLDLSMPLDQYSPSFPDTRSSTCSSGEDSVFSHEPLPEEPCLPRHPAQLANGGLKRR
Sequence of EPHB1 (P54762 whole entry, looked up): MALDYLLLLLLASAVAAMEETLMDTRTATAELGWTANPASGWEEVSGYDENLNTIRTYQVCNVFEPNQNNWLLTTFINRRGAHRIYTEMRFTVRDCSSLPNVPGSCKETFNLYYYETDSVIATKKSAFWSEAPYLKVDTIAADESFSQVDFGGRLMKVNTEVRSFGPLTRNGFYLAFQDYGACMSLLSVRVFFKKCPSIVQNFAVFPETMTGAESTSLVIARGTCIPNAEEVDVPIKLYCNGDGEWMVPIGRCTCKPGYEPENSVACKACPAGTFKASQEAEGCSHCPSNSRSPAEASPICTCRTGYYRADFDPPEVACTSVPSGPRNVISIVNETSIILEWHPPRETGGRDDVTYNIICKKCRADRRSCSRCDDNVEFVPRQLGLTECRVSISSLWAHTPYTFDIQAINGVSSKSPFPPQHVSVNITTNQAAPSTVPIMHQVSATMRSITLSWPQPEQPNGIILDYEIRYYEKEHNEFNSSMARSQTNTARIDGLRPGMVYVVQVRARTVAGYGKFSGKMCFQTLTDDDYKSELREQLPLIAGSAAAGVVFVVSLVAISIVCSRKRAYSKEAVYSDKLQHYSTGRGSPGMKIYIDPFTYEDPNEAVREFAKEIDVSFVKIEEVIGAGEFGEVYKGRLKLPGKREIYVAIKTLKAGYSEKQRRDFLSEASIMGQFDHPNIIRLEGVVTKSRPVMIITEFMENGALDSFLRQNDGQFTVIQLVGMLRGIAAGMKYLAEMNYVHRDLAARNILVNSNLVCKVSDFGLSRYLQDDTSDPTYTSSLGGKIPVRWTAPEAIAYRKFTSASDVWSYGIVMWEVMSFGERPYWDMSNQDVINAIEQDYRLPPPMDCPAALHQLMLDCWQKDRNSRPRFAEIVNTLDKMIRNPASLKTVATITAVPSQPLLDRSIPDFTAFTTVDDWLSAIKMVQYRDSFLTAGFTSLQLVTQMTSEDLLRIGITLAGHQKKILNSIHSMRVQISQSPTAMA

Sequence | SH2 binding enrichment (c-Src SH2) | SH2 binding enrichment (SHP2-C SH2) | SH2 binding enrichment (Grb2 SH2) | phosphorylation enrichment (Hck) | phosphorylation enrichment (FGFR3) | phosphorylation enrichment (EPHB2) | phosphorylation enrichment (Jak2) | phosphorylation enrichment (c-Src) | phosphorylation enrichment (MERTK) | phosphorylation enrichment (c-Abl (mouse)) | phosphorylation enrichment (Fer (mouse)) | phosphorylation enrichment (AncSZ) | phosphorylation enrichment (Fes) | phosphorylation enrichment (FGFR1) | phosphorylation enrichment (EPHB1) | phosphorylation enrichment (Fyn)
KPGLIYNKVNP [SPRED3_Y72_V71I] | 0.895 | 1.44 | 1.12 | 2.25 | 0.429 | 0.408 | 0.722 | 0.975 | 1.07 | 0.857 | 0.803 | 0.703 | 1 | 0.373 | 0.485 | 0.738
KPGLKYVTFGN [GALNTL5_Y404_YF] | 1.21 | 1.7 | 1.33 | 0.498 | 0.514 | 0.539 | 0.605 | 0.488 | 0.449 | 0.551 | 0.366 | 0.671 | 0.768 | 0.412 | 0.351 | 0.409
KPGVNYFFRVS | 0.463 | 0.749 | 0.863 | 0.479 | 0.697 | 0.472 | 0.986 | 0.374 | 0.358 | 0.73 | 0.41 | 1.06 | 1.32 | 0.376 | 0.495 | 0.348
KRELRYMHSRV [ABCD1_Y281_G277R] | 1.49 | 1.65 | 1.43 | 0.381 | 0.447 | 0.534 | 0.525 | 0.313 | 0.305 | 0.486 | 0.272 | 0.472 | 0.578 | 0.295 | 0.282 | 0.312
KRFRIYHLATS [BRCA2_Y3009_YF] | 1.24 | 1.18 | 1.05 | 0.454 | 0.481 | 0.435 | 0.439 | 0.482 | 0.38 | 0.391 | 0.422 | 0.567 | 1.57 | 0.358 | 0.353 | 0.434
KRGIDYILWHM [FRMD1_Y225_R228W] | 1.08 | 1.5 | 1.56 | 0.536 | 0.984 | 0.824 | 1.06 | 0.414 | 0.548 | 0.788 | 0.591 | 1.04 | 1.15 | 1.33 | 0.765 | 0.5
KRLAVYIDEEA [EPM2A_Y304_P301L] | 0.507 | 0.486 | 0.85 | 0.496 | 0.837 | 0.615 | 1.23 | 0.578 | 0.484 | 0.781 | 0.524 | 1.11 | 1.14 | 0.514 | 0.665 | 0.601
KRPAVYIDEEA [EPM2A_Y304] | 0.711 | 0.709 | 0.949 | 0.485 | 0.704 | 0.514 | 0.901 | 0.542 | 0.518 | 0.746 | 0.548 | 1.07 | 1.07 | 0.598 | 0.547 | 0.567
KRYRIYHLAIS [BRCA2_Y3009_T3013I] | 1.51 | 1.03 | 1.13 | 0.446 | 0.464 | 0.358 | 0.604 | 0.459 | 0.62 | 0.449 | 0.406 | 0.535 | 0.68 | 0.599 | 0.37 | 0.343
KSAAIYNPVIY [RHO_Y301] | 1.02 | 0.581 | 1.1 | 8.17 | 1.25 | 0.744 | 0.573 | 6.12 | 3.42 | 0.727 | 15.4 | 0.758 | 0.72 | 1.41 | 0.805 | 7.54
KSEMSYIDGEK [SORBS1_Y485] | 0.467 | 0.68 | 0.697 | 0.469 | 0.592 | 0.999 | 0.736 | 0.449 | 0.479 | 0.586 | 0.493 | 0.899 | 0.848 | 0.659 | 0.72 | 0.502
KTDKKYLMIEE [BAG3_Y451] | 0.473 | 0.573 | 0.762 | 0.516 | 0.746 | 0.635 | 0.96 | 0.532 | 0.424 | 0.807 | 0.647 | 0.867 | 1.11 | 0.463 | 0.436 | 0.477
KTGNIYRTEYG [MRPL3_Y265_M261T] | 0.463 | 0.91 | 0.829 | 0.496 | 0.592 | 0.421 | 0.414 | 0.424 | 0.425 | 0.441 | 0.629 | 0.555 | 0.633 | 0.464 | 0.451 | 0.488
KVALVYGQMNE [ATP5F1B_Y269] | 0.57 | 0.734 | 0.851 | 1.05 | 0.606 | 0.495 | 0.769 | 1.97 | 0.38 | 0.65 | 0.525 | 0.785 | 1.13 | 0.443 | 0.446 | 1.47
KVDKEYEVHVR [GHR_Y226_R229H] | 0.52 | 0.566 | 0.804 | 0.497 | 0.555 | 0.548 | 0.725 | 0.444 | 0.416 | 0.576 | 0.498 | 0.934 | 0.956 | 0.474 | 0.68 | 0.485
KVGPGSLGSGG [RET_Y826_Y826S] | 0.447 | 0.526 | 0.778 | 0.323 | 0.366 | 0.353 | 0.466 | 0.374 | 0.3 | 0.482 | 0.293 | 0.4 | 0.489 | 0.308 | 0.29 | 0.352
KVITDYFVDMK [MPP4_Y566_YF] | 0.595 | 0.717 | 0.757 | 0.561 | 0.795 | 0.547 | 0.858 | 0.435 | 0.439 | 0.673 | 0.451 | 0.897 | 1.36 | 0.748 | 0.429 | 0.455

Sequence | SH2 binding enrichment (c-Src SH2) | SH2 binding enrichment (SHP2-C SH2) | SH2 binding enrichment (Grb2 SH2) | phosphorylation enrichment (Hck) | phosphorylation enrichment (FGFR3) | phosphorylation enrichment (EPHB2) | phosphorylation enrichment (Jak2) | phosphorylation enrichment (c-Src) | phosphorylation enrichment (MERTK) | phosphorylation enrichment (c-Abl (mouse)) | phosphorylation enrichment (Fer (mouse)) | phosphorylation enrichment (AncSZ) | phosphorylation enrichment (Fes) | phosphorylation enrichment (FGFR1) | phosphorylation enrichment (EPHB1) | phosphorylation enrichment (Fyn)
KVKSIYFHTQG [AR_Y916_P914S] | 0.568 | 0.793 | 0.641 | 0.414 | 0.544 | 0.449 | 0.614 | 0.436 | 0.379 | 0.563 | 0.367 | 0.69 | 0.718 | 0.414 | 0.542 | 0.51
KYLENYLNCLL [PLD2_Y169_R172C] | 0.747 | 0.835 | 0.983 | 0.456 | 1.05 | 0.776 | 1.28 | 0.498 | 0.52 | 1.03 | 0.707 | 1.1 | 1.47 | 0.989 | 1.18 | 0.476
LAEMNYVHRDL [EPHB1_Y740] | 0.403 | 0.578 | 0.882 | 0.362 | 0.503 | 0.632 | 1.4 | 0.432 | 0.659 | 1.15 | 0.32 | 1.32 | 0.709 | 0.412 | 0.441 | 0.529
LAETSYVTVLE [MAGEA1_Y276_K278T] | 1.25 | 2.48 | 0.73 | 0.862 | 1.31 | 0.968 | 1.02 | 0.496 | 0.708 | 0.903 | 0.67 | 1.65 | 1.65 | 0.915 | 0.674 | 0.702
LAIERYVVVSK [RHO_Y136_C140S] | 1.51 | 1.33 | 0.627 | 0.443 | 0.701 | 3.45 | 0.744 | 0.396 | 0.515 | 0.935 | 0.459 | 0.86 | 1.04 | 0.843 | 0.499 | 0.596
LANNEYYFQVC | 0.431 | 0.576 | 0.93 | 1.19 | 12.9 | 1.56 | 2.34 | 1.94 | 2.08 | 1.02 | 1.11 | 3.4 | 1.69 | 15.7 | 1.63 | 1.43
LARDIYKNDFF [ROS1_Y2110_YF] | 0.44 | 0.748 | 1.41 | 0.599 | 0.592 | 0.933 | 2.38 | 2.29 | 1.57 | 1.31 | 1.14 | 2.31 | 2.15 | 0.68 | 0.962 | 1.47
LARNMYDKEFF [MET_Y1230_D1228N_YF] | 0.541 | 0.739 | 0.427 | 0.694 | 0.62 | 0.592 | 1 | 0.626 | 0.578 | 0.793 | 0.541 | 1.03 | 1.01 | 0.602 | 0.706 | 0.529
LASLIYNFVLF [AQP6_Y231] | 0.692 | 0.989 | 1.11 | 5.89 | 3.34 | 4.52 | 1.51 | 7.23 | 7.85 | 4.1 | 14.5 | 1.73 | 2.2 | 3.53 | 1.93 | 7.62
LAVGDYMRRQK [ATM_Y1915_V1913G] | 0.37 | 0.695 | 0.597 | 0.504 | 0.411 | 0.41 | 0.691 | 0.503 | 0.476 | 0.555 | 0.504 | 0.696 | 0.734 | 0.437 | 0.441 | 0.545
LEDEVYAQKMK [TPM2_Y261] | 0.521 | 0.836 | 0.953 | 2.62 | 1.97 | 1.08 | 2.5 | 1.22 | 0.889 | 1.49 | 1.91 | 2.79 | 2.74 | 1.25 | 2.92 | 2.37
LEFGDCHPLKP [VPS35L_Y32_Y32C] | 0.529 | 0.613 | 0.963 | 0.777 | 1.52 | 0.802 | 1.16 | 0.602 | 0.472 | 0.884 | 1.24 | 1.63 | 1.97 | 0.763 | 0.863 | 0.841
LEKISYVFMKR [SSX7_Y48_YF] | 0.432 | 0.831 | 0.85 | 1.14 | 1.42 | 1.21 | 1.72 | 0.581 | 0.538 | 0.811 | 0.879 | 1.9 | 2.51 | 0.969 | 1.65 | 0.963
LFQAKYQIRFR [CRLF1_Y272_YF] | 0.813 | 1.32 | 1.19 | 0.524 | 1.35 | 0.69 | 1.64 | 1.02 | 0.868 | 1.31 | 0.972 | 1.83 | 1.6 | 1.03 | 0.698 | 0.643
LFSDHYSPSGR [TMPRSS12_Y23_YF] | 0.554 | 0.842 | 0.989 | 0.455 | 0.459 | 0.452 | 0.473 | 0.363 | 0.382 | 0.331 | 0.351 | 0.654 | 0.574 | 0.446 | 0.545 | 0.39
LGSVVYAHSKE [KCNQ2_Y226] | 0.467 | 0.754 | 0.809 | 0.403 | 0.419 | 0.437 | 0.559 | 0.413 | 0.424 | 0.449 | 0.416 | 0.527 | 0.596 | 0.445 | 0.473 | 0.407
